# According to patent US12331319B2, “Respiratory and sweat gland ionocytes” (The Broad Institute, Inc., priority 2017, dated 2025):
# B1: rIL-13: recombinant murine IL-13 (Peprotech) used to induce mucous metaplasia (protein, UniProt P20109 19-131, looked up)
# Interleukin-13: APGPVPRSVSLPLTLKELIEELSNITQDQTPLCNGSMVWSVDLAAGGFCVALDSLTNISNCNAIYRTQRILHGLCNRKAPTTVSSLPDTKIEVAHFITKLLSYTKQLFRHGPF
# Tested on: cultured proximal and distal airway epithelium
# Assay: IL-13-induced mucous metaplasia (goblet cell differentiation) in cultured proximal and distal airway epithelium (ALI)
# Assay type: cell-based, mouse
# Conditions: rIL-13 25 ng/mL vs control; epithelia from proximal vs distal trachea, Foxj1-GFP mice n=6; p<0.001
# Method: Transwell cultures. Cells were cultured and expanded in complete SAGM (small airway epithelial cell growth medium; Lonza, CC-3118) containing TGF-β/BMP4/WNT antagonist cocktails and 5 μM Rock inhibitor Y-27632 (Selleckbio, S1049). To initiate air-liquid interface (ALI) cultures, airway basal stem cells were dissociated from mouse tracheas and seeded onto transwell membranes. After reaching confluence, media was removed from the upper chamber. Mucociliary differentiation was performed with PneumaCult-ALI Medium (StemCell, 05001). Differentiation of airway basal stem cells on an air-liquid interface was followed by directly visualizing beating cilia in real time after 10-14 days. […]
# Statistical analysis of proximodistal mucous metaplasia. For the analysis in FIG. 18H,I, the extent of goblet cell hyperplasia was assessed using counts of Muc5ac^+ goblet cells, normalized to counts of GFP^+ ciliated cells. To quantify differences in the count values between the samples in different conditions (n=6, Foxj1-GFP mice), Applicants fit a negative binomial regression using the ‘glm.nb’ function from the ‘MASS’ package in R. Pairwise comparisons between means for each condition were computed using post hoc tests and p-values were adjusted for multiple comparisons using Tukey's HSD, implemented using the function ‘pairs’ from the ‘emeans’ package in R.
molecule,measurement,value
B1,induction of goblet cell differentiation (Muc5ac+ goblet cells / GFP+ ciliated cells),much higher induction of goblet cell differentiation in the distal epithelium
